Experimental data taken from the Human Domainome abundance scans (Beltran et al. 2025).
± gives the uncertainty stated by the source.

B1: Ventral anterior homeobox 1, residues 102 to 157; numbered along this chain, Q5SQQ9 (parent)
chain: RTRTSFTAEQLYRLEMEFQRCQYVVGRERTELARQLNLSETQVKVWFQNRRTKQKK
B2: Intersectin-1, residues 909 to 971; numbered along this chain, Q15811 (parent)
chain: QGEKVEGLQAQALYPWRAKKDNHLNFNKNDVITVLEQQDMWWFGEVQGQKGWFPKSYVKLISG

Variants of: B1
Assay: abundance fitness (aPCA) (normalised: wild type 0, dead -1); higher = more abundant; growth selection in yeast, the domain comes from the species named
Conditions: Homo sapiens

Abundance fitness of substitutions, site by site:
T52: G 0.137 ± 0.09, N -0.037 ± 0.25, F -0.285 ± 0.17, Q -0.145 ± 0.15, I -0.358 ± 0.17, P -0.558 ± 0.19, D 0.154 ± 0.19, L -0.141 ± 0.1, V -0.014 ± 0.1, R -0.249 ± 0.098, W -0.316 ± 0.14, A -0.11 ± 0.12, M 0.194 ± 0.18, E 0.139 ± 0.16, H -0.279 ± 0.23, Y -0.137 ± 0.3, C -0.165 ± 0.17, K 0.091 ± 0.16
R50: E 0.009 ± 0.19, H -0.624 ± 0.43, Y -0.285 ± 0.27, W -0.929 ± 0.2, Q -0.098 ± 0.17, L -0.925 ± 0.2, V -0.943 ± 0.18, K -0.041 ± 0.17, S -0.451 ± 0.12, G -0.832 ± 0.13, T -0.392 ± 0.16, I -1.09 ± 0.44, M -0.034 ± 0.16, N -0.424 ± 0.35, A -0.163 ± 0.13, P -1.02 ± 0.29
K56: R -0.127 ± 0.22, E 0.12 ± 0.33, Q -0.167 ± 0.33, S 0.135 ± 0.14, M -0.17 ± 0.27, N 0.151 ± 0.34, V 0.005 ± 0.22, H -0.159 ± 0.27, A -0.291 ± 0.3, I 0.003 ± 0.39, G 0.324 ± 0.18, C 0.148 ± 0.37, L -0.205 ± 0.24, P 0.143 ± 0.36, Y -0.039 ± 0.19, W 0.078 ± 0.38
N49: I -0.069 ± 0.27, V -0.1 ± 0.12, Q -0.038 ± 0.21, F -0.609 ± 0.48, R -0.26 ± 0.11, S -0.277 ± 0.14, L -0.046 ± 0.12, D -0.019 ± 0.32, E 0.297 ± 0.15, T 0.072 ± 0.18, K -0.022 ± 0.18, M -0.442 ± 0.2, C -0.283 ± 0.25, P -0.929 ± 0.31, H -0.358 ± 0.27, G -0.047 ± 0.1
Q54: H -0.149 ± 0.18, C -0.252 ± 0.2, F -0.284 ± 0.18, N -0.202 ± 0.3, R -0.237 ± 0.084, W -0.187 ± 0.11, L -0.045 ± 0.088, P 0.013 ± 0.12, S -0.125 ± 0.1, G 0.005 ± 0.076, E 0.11 ± 0.12, I -0.191 ± 0.32, Y -0.317 ± 0.39, A 0.018 ± 0.09, T -0.332 ± 0.22, V -0.017 ± 0.088, K 0.144 ± 0.27
K53: H -0.226 ± 0.32, E 0.186 ± 0.16, V 0.137 ± 0.12, M -0.103 ± 0.19, Q 0.115 ± 0.19, R -0.088 ± 0.09, C 0.202 ± 0.18, T 0.197 ± 0.16, A 0.044 ± 0.12, Y 0.292 ± 0.43, G -0.037 ± 0.096, S 0.161 ± 0.17, N 0.199 ± 0.33, W -0.04 ± 0.14, D 0.209 ± 0.19, F 0.174 ± 0.26, L 0.183 ± 0.13, I -0.02 ± 0.28
K55: M -0.288 ± 0.18, G 0.043 ± 0.093, F -0.229 ± 0.21, R -0.187 ± 0.1, N 0.081 ± 0.18, W -0.105 ± 0.12, A 0.086 ± 0.1, E 0.238 ± 0.15, H -0.149 ± 0.26, L 0.128 ± 0.11, I -0.238 ± 0.2, Y -0.199 ± 0.23, S -0.072 ± 0.12, Q 0.29 ± 0.21, C -0.091 ± 0.2, P 0.061 ± 0.13, D 0.305 ± 0.17, V 0.119 ± 0.1
R51: C -0.08 ± 0.17, N -0.117 ± 0.35, V -0.319 ± 0.12, D -0.14 ± 0.22, A -0.325 ± 0.12, F -0.2 ± 0.25, H -0.038 ± 0.18, S -0.201 ± 0.13, K -0.365 ± 0.32, G -0.16 ± 0.1, E -0.309 ± 0.19, Y -0.091 ± 0.21, I 0.068 ± 0.26, Q 0.049 ± 0.24, W -0.243 ± 0.14, M -0.333 ± 0.25
Q48: C -0.051 ± 0.29, M -0.122 ± 0.3, I -0.284 ± 0.46, H -0.505 ± 0.39, R -0.172 ± 0.15, L -0.051 ± 0.2, K 0.142 ± 0.45, G -0.314 ± 0.15, S -0.111 ± 0.16, E -0.193 ± 0.31, Y -0.298 ± 0.28, W -0.619 ± 0.27, D -0.11 ± 0.44, T -0.076 ± 0.26, V -0.115 ± 0.18

Variants of: B2
Assay: as above
Conditions: Homo sapiens

Abundance fitness of substitutions, site by site:
K50: S -0.139 ± 0.11, N 0.014 ± 0.16, T -0.108 ± 0.15
V34: Y -0.856 ± 0.44, M -0.772 ± 0.3
W16: V -0.357 ± 0.08, F -0.092 ± 0.21, E -0.888 ± 0.44, G -0.744 ± 0.12
A12: S -0.577 ± 0.2
K28: L -0.462 ± 0.23, Y -0.254 ± 0.41, M -0.208 ± 0.19, A -0.264 ± 0.19
K20: R -0.078 ± 0.04
S62: L -0.084 ± 0.16
K55: R 0.018 ± 0.3
